From publication PMC7498358

Target: YB-1 CSDex (Homo sapiens, UniProt P67809 51-140)
Assay: NMR HSQC titration

Sequence of YB-1 CSDex (P67809 51-140): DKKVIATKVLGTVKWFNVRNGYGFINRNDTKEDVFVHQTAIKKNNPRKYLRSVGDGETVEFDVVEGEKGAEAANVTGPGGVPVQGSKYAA

B1: CACC dsDNA (dsDNA)
DNA 1: TCAACACCTC
DNA 2: GAGGTGTTGA
  binding result: binds
